The chains are these.
B1: MBP-tagged Hook2 Hook+CC1 (N427) WT [human] / GST-tagged LIC1 (389–523 aa) [not stated] (parent complex)
chain 1: MSVDKAELCGSLLTWLQTFHVPSPCASPQDLSSGLAVAYVLNQIDPSWFNEAWLQGISEDPGPNWKLKVSNLKMVLRSLVEYSQDVLAHPVSEEHLPDVSLIGEFSDPAELGKLLQLVLGCAISCEKKQDHIQRIMTLEESVQHVVMEAIQELMTKDTPDSLSPETYGNFDSQSRRYYFLSEEAEEGDELQQRCLDLERQLMLLSEEKQSLAQENAGLRERMGRPEGEGTPGLTAKKLLLLQSQLEQLQEENFRLESGREDERLRCAELEREVAELQHRNQALTSLAQEAQALKDEMDELRQSSERAGQLEATLTSCRRRLGELRELRRQVRQLEERNAGHAERTRQLEDELRRAGSLRAQLEAQRRQVQELQGQRQEEAMKAEKWLFECRNLEEKYESVTKEKERLLAERDSLREANEELRCAQLQ
chain 2: TAAGRPVDASPRVPGGSPRTPNRSVSSNVASVSPIPAGSKKIDPNMKAGATSEGVLANFFNSLLSKKTGSPGGPGVSGGSPAGGAGGGSSGLPPSTKKSGQKPVLDVHAELDRITRKPVTVSPTTPTSPTEGEAS

Variants of B1 are the subject of the assay. Nature of the assay: GST pull-down, anti-MBP immunoblot, band intensity quantified; n = 3; parent: 0.95; read off a plot. (In general: Immunoblotting shows a protein as a band on a membrane.)
For chain 1 MSVDKAELCGSLLTWLQTFHVPSPCASPQDLSSGLAVAYVLNQIDPSWFNEAWLQGISEDPGPNWKLKVSNLKMVLRSLVEYSQDVLAHPVSEEHLPDVSLIGEFSDPAELGKLLQLVLGCAISCEKKQDHIQRIMTLEESVAHVVMEAIQELMTKDTPDSLSPETYGNFDSQSRRYYFLSEEAEEGDELQQRCLDLERQLMLLSEEKQSLAQENAGLRERMGRPEGEGTPGLTAKKLLLLQSQLEQLQEENFRLESGREDERLRCAELEREVAELQHRNQALTSLAQEAQALKDEMDELRQSSERAGQLEATLTSCRRRLGELRELRRQVRQLEERNAGHAERTRQLEDELRRAGSLRAQLEAQRRQVQELQGQRQEEAMKAEKWLFECRNLEEKYESVTKEKERLLAERDSLREANEELRCAQLQ [chain 1 Q143A], the response is approximately 0.22 Pulldown/Input.

chain 1 MSVDKAELCGSLLTWLQTFHVPSPCASPQDLSSGLAVAYVLNQIDPSWFNEAWLQGISEDPGPNWKLKVSNLKMVLRSLVEYSQDVLAHPVSEEHLPDVSLIGEFSDPAELGKLLQLVLGCAISCEKKQDHIQRIMTLEESVQHVVMEAAQELMTKDTPDSLSPETYGNFDSQSRRYYFLSEEAEEGDELQQRCLDLERQLMLLSEEKQSLAQENAGLRERMGRPEGEGTPGLTAKKLLLLQSQLEQLQEENFRLESGREDERLRCAELEREVAELQHRNQALTSLAQEAQALKDEMDELRQSSERAGQLEATLTSCRRRLGELRELRRQVRQLEERNAGHAERTRQLEDELRRAGSLRAQLEAQRRQVQELQGQRQEEAMKAEKWLFECRNLEEKYESVTKEKERLLAERDSLREANEELRCAQLQ [chain 1 I150A]: the response is approximately 0.18 Pulldown/Input.

These data come from publication PMC6400558 (2019).
